# Measured values: paper PMC10611586, “Molecular basis for ubiquitin/Fubi cross-reactivity in USP16 and USP36” (Nature Chemical Biology, 2023)
# B1: USP42^70–446 (catalytic domain) (enzyme, human, UniProt Q9H9J4 70-446, looked up)
# chain: DKSKPSPQKDQALGDGIAPPQKVLFPSEKICLKWQQTHRVGAGLQNLGNTCFANAALQCLTYTPPLANYMLSHEHSKTCHAEGFCMMCTMQAHITQALSNPGDVIKPMFVINEMRRIARHFRFGNQEDAHEFLQYTVDAMQKACLNGSNKLDRHTQATTLVCQIFGGYLRSRVKCLNCKGVSDTFDPYLDITLEIKAAQSVNKALEQFVKPEQLDGENSYKCSKCKKMVPASKRFTIHRSSNVLTLSLKRFANFTGGKIAKDVKYPEYLDIRPYMSQPNGEPIVYVLYAVLVHTGFNCHAGHYFCYIKASNGLWYQMNDSIVSTSDIRSVLSQQAYVLFYIRSHDVKNGGELTHPTHSPGQSSPRPVISQRVVTNKQ
# notes: USP42, human, catalytic domain, residues 70-446; also called recombinant USP42; source: E. coli Rosetta2(DE3)pLacI, purified (HisTrap, 3C cleavage, reverse Ni-NTA, cation exchange)
# B2: USP36^81–424 (catalytic domain, shorter construct) (enzyme, human, UniProt Q9P275 81-424, looked up)
# chain: ARRQGSEHTYESCGDGVPAPQKVLFPTERLSLRWERVFRVGAGLHNLGNTCFLNATIQCLTYTPPLANYLLSKEHARSCHQGSFCMLCVMQNHIVQAFANSGNAIKPVSFIRDLKKIARHFRFGNQEDAHEFLRYTIDAMQKACLNGCAKLDRQTQATTLVHQIFGGYLRSRVKCSVCKSVSDTYDPYLDVALEIRQAANIVRALELFVKADVLSGENAYMCAKCKKKVPASKRFTIHRTSNVLTLSLKRFANFSGGKITKDVGYPEFLNIRPYMSQNNGDPVMYGLYAVLVHSGYSCHAGHYYCYVKASNGQWYQMNDSLVHSSNVKVVLNQQAYVLFYLRIP
# notes: USP36, human, catalytic domain, residues 81-424; also called shorter USP36^81–424 construct; source: E. coli Rosetta2(DE3)pLacI, purified (HisTrap, 3C cleavage, cation exchange)
# B3: USP36^81–461 (catalytic domain, longer construct) (enzyme, human, UniProt Q9P275 81-461, looked up)
# chain: ARRQGSEHTYESCGDGVPAPQKVLFPTERLSLRWERVFRVGAGLHNLGNTCFLNATIQCLTYTPPLANYLLSKEHARSCHQGSFCMLCVMQNHIVQAFANSGNAIKPVSFIRDLKKIARHFRFGNQEDAHEFLRYTIDAMQKACLNGCAKLDRQTQATTLVHQIFGGYLRSRVKCSVCKSVSDTYDPYLDVALEIRQAANIVRALELFVKADVLSGENAYMCAKCKKKVPASKRFTIHRTSNVLTLSLKRFANFSGGKITKDVGYPEFLNIRPYMSQNNGDPVMYGLYAVLVHSGYSCHAGHYYCYVKASNGQWYQMNDSLVHSSNVKVVLNQQAYVLFYLRIPGSKKSPEGLISRTGSSSLPGRPSVIPDHSKKNIGNGI
# notes: also called recombinant USP36; source: E. coli Rosetta2(DE3)pLacI, purified (HisTrap, 3C cleavage, cation exchange)
# B4: USP16^191–823 (catalytic domain) (enzyme, human, UniProt Q9Y5T5 191-823, looked up)
# chain: CQITVKGLSNLGNTCFFNAVMQNLSQTPVLRELLKEVKMSGTIVKIEPPDLALTEPLEINLEPPGPLTLAMSQFLNEMQETKKGVVTPKELFSQVCKKAVRFKGYQQQDSQELLRYLLDGMRAEEHQRVSKGILKAFGNSTEKLDEELKNKVKDYEKKKSMPSFVDRIFGGELTSMIMCDQCRTVSLVHESFLDLSLPVLDDQSGKKSVNDKNLKKTVEDEDQDSEEEKDNDSYIKERSDIPSGTSKHLQKKAKKQAKKQAKNQRRQQKIQGKVLHLNDICTIDHPEDSEYEAEMSLQGEVNIKSNHISQEGVMHKEYCVNQKDLNGQAKMIESVTDNQKSTEEVDMKNINMDNDLEVLTSSPTRNLNGAYLTEGSNGEVDISNGFKNLNLNAALHPDEINIEILNDSHTPGTKVYEVVNEDPETAFCTLANREVFNTDECSIQHCLYQFTRNEKLRDANKLLCEVCTRRQCNGPKANIKGERKHVYTNAKKQMLISLAPPVLTLHLKRFQQAGFNLRKVNKHIKFPEILDLAPFCTLKCKNVAEENTRVLYSLYGVVEHSGTMRSGHYTAYAKARTANSHLSNLVLHGDIPQDFEMESKGQWFHISDTHVQAVPTTKVLNSQAYLLFYERIL
# notes: USP16, human, catalytic domain, residues 191-823; also called recombinant USP16; source: E. coli Rosetta2(DE3)pLacI, purified (HisTrap, 3C cleavage, reverse Ni-NTA, anion exchange, SEC)
# B5: USP2^258–605 (catalytic domain) (enzyme, human, UniProt O75604 258-605, looked up)
# chain: MNSKSAQGLAGLRNLGNTCFMNSILQCLSNTRELRDYCLQRLYMRDLHHGSNAHTALVEEFAKLIQTIWTSSPNDVVSPSEFKTQIQRYAPRFVGYNQQDAQEFLRFLLDGLHNEVNRVTLRPKSNPENLDHLPDDEKGRQMWRKYLEREDSRIGDLFVGQLKSSLTCTDCGYCSTVFDPFWDLSLPIAKRGYPEVTLMDCMRLFTKEDVLDGDEKPTCCRCRGRKRCIKKFSIQRFPKILVLHLKRFSESRIRTSKLTTFVNFPLRDLDLREFASENTNHAVYNLYAVSNHSGTTMGGHYTAYCRSPGTGEWHTFNDSSVTPMSSSQVRTSDAYLLFYELASPPSRM
# notes: USP2, human, catalytic domain, residues 258-605; also called recombinant USP2; source: E. coli Rosetta2(DE3)pLacI, purified (HisTrap, 3C cleavage, SEC)
# Columns and labels:
# Details in all cases: both partners purified
# [1] = target: T1, ubiquitin-PA (untagged, wild type) (human, UniProt P0CG47 1-75, C-terminal propargylamine (PA) warhead); assay: activity-based probe labelling (covalent conjugate), SDS-PAGE; purified protease 2.5 µM and probe 10 µM, 1 h at 37 °C; 20 mM Tris pH 8.0, 300 mM NaCl, 2 mM DTT, 5% glycerol; SDS-PAGE and Coomassie staining
# T1 construct: ubiquitin, human, residues 1-75 of the 76-residue ubiquitin; also called Ub-PA; wild-type ubiquitin-PA
# [2] = target: T2, Fubi-PA (untagged, wild type) (human, UniProt P62861 1-73, C-terminal propargylamine (PA) warhead); assay: intact protein LC-MS; covalent USP36~probe complexes analysed by intact protein mass spectrometry
# T2 construct: Fubi, human, residues 1-73 of the 74-residue Fubi; also called wild-type Fubi-PA; Fubi-based probe
# [3] = target: T1, ubiquitin-PA (untagged, wild type); assay: as above
# T2 sequence (P62861 1-73): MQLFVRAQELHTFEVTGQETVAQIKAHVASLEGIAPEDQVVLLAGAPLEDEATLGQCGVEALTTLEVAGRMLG
Binder,binding result [1],stoichiometry N [2],stoichiometry N [3]
B1,binds,,
B2,binds,,
B3,,1,1
B4,binds,,
B5,binds,,
